Reference: patent publication US20120219942, “Methods Employing McrA to Detect 5-Methyl Cytosine” (Brookhaven Science Associates, LLC, published 2012)

Legend:
[1] = molecular target: T1, McrA (rMcrA-S, C-terminal StrepII) (Escherichia coli, UniProt P24200 P24200:1-277); experiment: EMSA; NEBuffer 3, RT; conditions: tags: C-terminal StrepII SAWSHPQFEK
T1 sequence: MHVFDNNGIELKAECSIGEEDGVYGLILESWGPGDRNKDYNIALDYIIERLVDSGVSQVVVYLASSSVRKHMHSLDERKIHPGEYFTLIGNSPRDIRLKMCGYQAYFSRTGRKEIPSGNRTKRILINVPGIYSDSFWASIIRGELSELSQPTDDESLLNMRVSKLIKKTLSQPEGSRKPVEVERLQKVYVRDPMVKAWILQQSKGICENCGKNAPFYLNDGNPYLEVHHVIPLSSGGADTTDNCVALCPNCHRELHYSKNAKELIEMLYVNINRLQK
Procedure: (§1) EMSA binding assays. Reactions (10 μl) typically contained a mixture of 10-25 pMol of various test DNAs, and 250 ng sonicated E. coli. ER2925DNA as a non-methylated, non-specific competitor in 50 mM Tris-HCl, 100 mM NaCl, 1 mM dithiothreitol, 10 mM MgCl₂ (NEBuffer #3), supplemented, with 100 μg/ml BSA. We started the reactions adding 25-175 pMol McrA-S; after 45 min at RT, the entire sample was loaded on 10% acrylamide Tris-Acetate/EDTA gel (1×TAE: 40 mM Tris-Acetate, 1 mM disodium EDTA) which was electrophoresed at RT. Thereafter, the gels were stained with ethidium bromide (0.5 μg/ml) at RT and visualized with UV light. Then, we stained the gels with Coomassie Blue to detect rMcrA-S.

[2] = molecular target: T1, McrA (rMcrA-S, C-terminal StrepII); experiment: EMSA; high affinity; NEBuffer 3, RT; Mg independent; conditions: tags: C-terminal StrepII SAWSHPQFEK
Procedure: as §1

[3] = molecular target: T1, McrA (rMcrA-S, C-terminal StrepII); experiment: EMSA; A opposite m5C; conditions: tags: C-terminal StrepII SAWSHPQFEK; mismatch A opposite m5C
Procedure: as §1
(§2) We next tested the ability of rMcrA-S to gel-shift ds-cassettes wherein an A, C, T, U, or I residue is placed opposite the m⁵C.

[4] = molecular target: T1, McrA (rMcrA-S, C-terminal StrepII); experiment: EMSA; Ym5CGR somewhat higher affinity; conditions: tags: C-terminal StrepII SAWSHPQFEK
Procedure: as §1

[5] = molecular target: T1, McrA (rMcrA-S, C-terminal StrepII); experiment: EMSA; T opposite m5C; conditions: tags: C-terminal StrepII SAWSHPQFEK; mismatch T opposite m5C
Procedure: as §1, §2

[6] = molecular target: T1, McrA (rMcrA-S, C-terminal StrepII); experiment: EMSA; hemimethylated; conditions: tags: C-terminal StrepII SAWSHPQFEK
Procedure: as §1, §2

[7] = molecular target: T1, McrA (rMcrA-S, C-terminal StrepII); experiment: EMSA; C opposite m5C; conditions: tags: C-terminal StrepII SAWSHPQFEK; mismatch C opposite m5C
Procedure: as §1, §2

[8] = molecular target: T1, McrA (rMcrA-S, C-terminal StrepII); experiment: EMSA; NEBuffer 3, 100 mM NaCl, 10 mM MgCl2, RT; conditions: tags: C-terminal StrepII SAWSHPQFEK
Procedure: as §1

[9] = molecular target: T1, McrA (rMcrA-S, C-terminal StrepII); experiment: EMSA; U opposite m5C; conditions: tags: C-terminal StrepII SAWSHPQFEK; mismatch U opposite m5C
Procedure: as §1, §2

B1: Gm5CGA cassette (dsDNA)
DNA 1: CCCTCTGGCGAAGGAGGCTCCTGC
DNA 2: GCAGGAGCCTCCTTCGCCAGAGGG
modifications: 5mC at CpG (M.SssI), top 9, bottom 15
[1]
  binding result: binds

B2: Cm5CGG cassette (single methylated HpaII site) (dsDNA)
DNA 1: GCCTTCAGCGCCGGCGGATCCAGT
DNA 2: ACTGGATCCGCCGGCGCTGAAGGC
modifications: 5mC at position 12 of both strands
[2]
  binding result: binds

B3: m5CGC cassette (dsDNA)
DNA 1: CCCTCTGACGCAGGAGGCTCCTGC
DNA 2: GCAGGAGCCTCCTGCGTCAGAGGG
modifications: 5mC at CpG (M.SssI), top 9, bottom 15
[1]
  binding result: no binding

B4: m5C/A mismatch cassette (dsDNA)
DNA 1: GCCTTCAGCGCCGGCGGATCCAGT
DNA 2: ACTGGATCCGCCAGCGCTGAAGGC
modifications: 5mC at position 12 of top strand only
[3]
  binding result: no binding

B5: Cm5CGG cassette (M.SssI) (dsDNA)
DNA 1: CCCTCTGCCGGAGGAGGATCCTGC
DNA 2: GCAGGATCCTCCTCCGGCAGAGGG
modifications: 5mC at CpG (M.SssI), top 9, bottom 15
[4]
  binding result: binds

B6: Am5CGG cassette (dsDNA)
DNA 1: CCCTCTGACGGAGGAGGCTCCTGC
DNA 2: GCAGGAGCCTCCTCCGTCAGAGGG
modifications: 5mC at CpG (M.SssI), top 9, bottom 15
[1]
  binding result: binds

B7: m5C/T mismatch cassette (dsDNA)
DNA 1: GCCTTCAGCGCCGGCGGATCCAGT
DNA 2: ACTGGATCCGCCTGCGCTGAAGGC
modifications: 5mC at position 12 of top strand only
[5]
  binding result: no binding

B8: hemimethylated Cm5CGG cassette (m5C/G) (dsDNA)
DNA 1: GCCTTCAGCGCCGGCGGATCCAGT
DNA 2: ACTGGATCCGCCGGCGCTGAAGGC
modifications: 5mC at position 12 of top strand only
[6]
  binding result: binds

B9: m5C/C mismatch cassette (dsDNA)
DNA 1: GCCTTCAGCGCCGGCGGATCCAGT
DNA 2: ACTGGATCCGCCCGCGCTGAAGGC
modifications: 5mC at position 12 of top strand only
[7]
  binding result: no binding

B10: Gm5CGG cassette (dsDNA)
DNA 1: CCCTCTGGCGGAGGAGGCTCCTGC
DNA 2: GCAGGAGCCTCCTCCGCCAGAGGG
modifications: 5mC at CpG (M.SssI), top 9, bottom 15
[1]
  binding result: binds

B11: Tm5CGG cassette (dsDNA)
DNA 1: CCCTCTGTCGGAGGAGGCTCCTGC
DNA 2: GCAGGAGCCTCCTCCGACAGAGGG
modifications: 5mC at CpG (M.SssI), top 9, bottom 15
[4]
  binding result: binds

B12: Cm5CGA cassette (dsDNA)
DNA 1: CCCTCTGCCGAAGGAGGCTCCTGC
DNA 2: GCAGGAGCCTCCTTCGGCAGAGGG
modifications: 5mC at CpG (M.SssI), top 9, bottom 15
[4]
  binding result: binds

B13: three m5CpG cassette (dsDNA)
DNA 1: GCCTTCAGCGCCGGCGGATCCAGT
DNA 2: ACTGGATCCGCCGGCGCTGAAGGC
modifications: 5mC at positions 9, 12, 15 of both strands
[8]
  binding result: binds

B14: m5C/U mismatch cassette (dsDNA)
DNA 1: GCCTTCAGCGCCGGCGGATCCAGT
DNA 2: ACTGGATCCGCCUGCGCTGAAGGC
modifications: 5mC at position 12 of top strand only; U in bottom strand opposite m5C
[9]
  binding result: no binding

B15: Am5CGA cassette (dsDNA)
DNA 1: CCCTCTGACGAAGGAGGCTCCTGC
DNA 2: GCAGGAGCCTCCTTCGTCAGAGGG
modifications: 5mC at CpG (M.SssI), top 9, bottom 15
[1]
  binding result: binds

B16: Tm5CGA cassette (dsDNA)
DNA 1: CCCTCTGTCGAAGGAGGCTCCTGC
DNA 2: GCAGGAGCCTCCTTCGACAGAGGG
modifications: 5mC at CpG (M.SssI), top 9, bottom 15
[4]
  binding result: binds

B17: m5CGT cassette (dsDNA)
DNA 1: CCCTCTGACGTAGGAGGCTCCTGC
DNA 2: GCAGGAGCCTCCTACGTCAGAGGG
modifications: 5mC at CpG (M.SssI), top 9, bottom 15
[1]
  binding result: no binding
